According to publication PMC12756210, “Calcium signaling-mediated phosphorylation controls zinc allocation in Arabidopsis” (Stress Biology, 2025):

Legend:
[1] = molecular target: T1, CIPK23-His (Arabidopsis, UniProt Q93VD3 1-482); assay: pull-down; GST-ZIP2-Loop (or GST) on glutathione beads incubated with His-CIPK3/9/23/26; eluate blotted with anti-His antibody; details: both partners purified
T1 construct: amplified and cloned into pET30a; Printed both as CIPK3/9/23/26-His and as His-CIPK3/9/23/26, so the end of the tag is open; also called His-CIPK23; source: recombinant, cloned into pET30a
T1 sequence (looked up): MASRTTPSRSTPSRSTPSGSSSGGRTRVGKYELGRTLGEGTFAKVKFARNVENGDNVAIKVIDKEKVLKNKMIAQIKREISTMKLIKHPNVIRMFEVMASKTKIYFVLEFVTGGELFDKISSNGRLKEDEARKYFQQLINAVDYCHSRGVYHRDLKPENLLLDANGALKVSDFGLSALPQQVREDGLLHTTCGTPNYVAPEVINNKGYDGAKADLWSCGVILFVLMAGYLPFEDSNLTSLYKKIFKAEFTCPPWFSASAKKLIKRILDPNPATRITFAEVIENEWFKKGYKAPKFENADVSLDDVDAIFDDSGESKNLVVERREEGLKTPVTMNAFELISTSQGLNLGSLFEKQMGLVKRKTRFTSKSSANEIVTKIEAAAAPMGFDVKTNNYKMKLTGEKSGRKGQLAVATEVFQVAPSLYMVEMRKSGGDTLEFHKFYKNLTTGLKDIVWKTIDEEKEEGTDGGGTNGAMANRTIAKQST

[2] = molecular target: T2, CIPK26-His (Arabidopsis, UniProt Q84VQ3 1-439); assay: as above; details: both partners purified
T2 construct: amplified and cloned into pET30a; Printed both as CIPK3/9/23/26-His and as His-CIPK3/9/23/26, so the end of the tag is open; also called His-CIPK26; source: recombinant, cloned into pET30a
T2 sequence (looked up): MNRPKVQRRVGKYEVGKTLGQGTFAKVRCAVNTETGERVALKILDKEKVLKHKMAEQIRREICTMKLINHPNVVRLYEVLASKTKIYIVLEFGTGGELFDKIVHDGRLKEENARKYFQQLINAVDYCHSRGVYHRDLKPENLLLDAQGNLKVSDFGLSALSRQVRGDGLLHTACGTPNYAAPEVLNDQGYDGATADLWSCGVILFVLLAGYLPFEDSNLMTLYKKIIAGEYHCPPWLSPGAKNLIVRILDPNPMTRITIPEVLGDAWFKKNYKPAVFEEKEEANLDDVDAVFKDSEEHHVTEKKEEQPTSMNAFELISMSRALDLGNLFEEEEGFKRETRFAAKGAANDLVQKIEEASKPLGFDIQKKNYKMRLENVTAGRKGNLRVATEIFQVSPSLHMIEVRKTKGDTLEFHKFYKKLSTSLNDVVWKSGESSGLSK

- binding result [1]: binds
- binding result [2]: binds
B1: GST-ZIP2-Loop (domain or fragment, Arabidopsis, UniProt Q9LTH9 151-203, looked up)
chain: VAAGSNNNHVGASVGESREDDDVAVKEEGRREIKSGVDVSQALIRTSGFGDTA
notes: Zn transporter ZIP2, Arabidopsis; the largest Loop domain, residues 151-203 (451-609 bp of the CDS); Printed as GST-ZIP2-Loop and as ZIP2-Loop-GST; pGEX4T-1 normally places GST at the N-terminus (surmised); also called ZIP2-Loop-GST; source: prokaryotic fusion protein (pGEX4T-1), purified
